# B1: BCL2L13 (parent)
# chain: QSLDQEILLKVKTEIEEELKSLDK
# Variants of: B1
# Experiment: protein stability index of a GFP-peptide fusion (GPS, HEK-293T) (PSI 1-6); higher = more stable
# Details: c terminus: a fixed tail appended
# 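Further: lentivirally expressed fusions sorted by FACS into six bins by GFP to DsRed ratio, PSI derived from sequencing read proportions per bin multiplied by bin number.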
row,Variant,protein stability index
1,QSLDQEILLKVKTEIEEELKSLNK [D23N],4.04
2,QSLDQEILLKVNTEIEEELKSLDK [K12N],5.97
3,QSLDQEILLKVRTEIEEELKSLDK [K12R],4.77
4,QSLDQERLLKVKTEIEEELKSLDK [I7R],5.61
5,QSLDQEILLKTKTEIEEELKSLDK [V11T],5.51
6,QSLDQEILLSVKTEIEEELKSLDK [K10S],5.01
7,QSLDQEIGLKVKTEIEEELKSLDK [L8G],5.45
8,QSLDQEILLKVKREIEEELKSLDK [T13R],4.96
9,QSLDQMILLKVKTEIEEELKSLDK [E6M],3.71
10,QSLDQETLLKVKTEIEEELKSLDK [I7T],4.27
11,QSLDQEILLKVKTEIEEELKSLDL [K24L],4.71
12,QSLDQEILLKVATEIEEELKSLDK [K12A],4.94
13,QSLDQEILLKMKTEIEEELKSLDK [V11M],4.95
14,QSLDQEILLKVKTEIEEELKSLPK [D23P],4.85
15,QSLDQEISLKVKTEIEEELKSLDK [L8S],5.18
16,QSLDQEITLKVKTEIEEELKSLDK [L8T],5.71
17,QSLDQEILLKVKTEMEEELKSLDK [I15M],5.08
18,QSLDQEILLKVKTEIEEELKSLDF [K24F],4.89
19,QSLDQEILLKVKTTIEEELKSLDK [E14T],4.46
20,QSLDQEILLKVKTLIEEELKSLDK [E14L],2.82
21,QSLDQEILLKVKTEIEEELDSLDK [K20D],4.86
22,QSLDQEILLKVKTEIEEELKSLDE [K24E],5.74
23,QSLDQEWLLKVKTEIEEELKSLDK [I7W],2.94
24,QSLDQEILLKVKTEIEEELKSSDK [L22S],5.41

row,Variant,protein stability index
1,QSLDQEILLKVKTEIFEELKSLDK [E16F],3.53
2,QSLDQEILLKVKTEIEEELKSLDI [K24I],4.58
3,QSLDQEIMLKVKTEIEEELKSLDK [L8M],5.37
4,QSLDQEILLKVKTEIEEELKSPDK [L22P],5.67
5,QSLDQEILLKHKTEIEEELKSLDK [V11H],4.56
6,VSLDQEILLKVKTEIEEELKSLDK [Q1V],3.97
7,CSLDQEILLKVKTEIEEELKSLDK [Q1C],4.3
8,QSLDQEILLKVKTEIEEELNSLDK [K20N],5.17
9,QSLVQEILLKVKTEIEEELKSLDK [D4V],2.66
10,QSLDQEILLKVKTEAEEELKSLDK [I15A],5.33
11,QSLDQEILLKVKTQIEEELKSLDK [E14Q],4.84
12,QSLDQEILTKVKTEIEEELKSLDK [L9T],5.25
13,QSLDQEILLKVQTEIEEELKSLDK [K12Q],4.62
14,QSLDQEIKLKVKTEIEEELKSLDK [L8K],4.75
15,QSLDQEILIKVKTEIEEELKSLDK [L9I],4.29
16,QSLDQEILLKVKTEIEEELKSLDG [K24G],5.12
17,QSLEQEILLKVKTEIEEELKSLDK [D4E],4.58
18,QCLDQEILLKVKTEIEEELKSLDK [S2C],4.09
19,QSLDQEILLKVKTEIEEELKSLDV [K24V],4.71
20,QSLDQEILLKVKTEIEEEFKSLDK [L19F],4.76
21,QSLDQEILLDVKTEIEEELKSLDK [K10D],5.67
22,QSLDQEILLKVKGEIEEELKSLDK [T13G],4.06
23,QSLDQEILLLVKTEIEEELKSLDK [K10L],3.19
24,QSLDQEILLKVKTEIEENLKSLDK [E18N],4.4

row,Variant,protein stability index
1,QSLDQEILLKVKTEIEEELKTLDK [S21T],4.59
2,QSLDQEILLKVKTHIEEELKSLDK [E14H],4.26
3,QSLLQEILLKVKTEIEEELKSLDK [D4L],2.79
4,QSLDQEILLKVKTEIEEELKSLDS [K24S],4.9
5,QSLDQEILLKVKTEIEEELKSLEK [D23E],4.29
6,QSLDQEILLKVKTEIEEETKSLDK [L19T],5.48
7,QSLDNEILLKVKTEIEEELKSLDK [Q5N],4.61
8,QSLDQEILLKVKTVIEEELKSLDK [E14V],3.48
9,QSLDQEILLKVKTFIEEELKSLDK [E14F],3.06
10,QSLDQEILLKVKTEIEEELKSDDK [L22D],5.74
11,QSLDQEILLKVKTEIEAELKSLDK [E17A],4.57
12,QSLDQEILLKVKTEIEEEDKSLDK [L19D],5.77
13,QSLDQLILLKVKTEIEEELKSLDK [E6L],3.58
14,QSLDQEILLKVKVEIEEELKSLDK [T13V],3.58
15,QSLDQEILLKVKTEIEEELKSYDK [L22Y],5.02
16,QPLDQEILLKVKTEIEEELKSLDK [S2P],4.71
17,QSLDQEILLKVKTEIEEELKSLAK [D23A],2.63
18,QSLDQEILSKVKTEIEEELKSLDK [L9S],5.21
19,QSLDQEILLKVKTEIEEELKSLQK [D23Q],4.48
20,QSLDQEILLKVKTEIEEELKNLDK [S21N],5.38
21,QSLDDEILLKVKTEIEEELKSLDK [Q5D],5.28
22,QSLDQEILLKVKTEIEFELKSLDK [E17F],3.54
23,QSNDQEILLKVKTEIEEELKSLDK [L3N],5.64
24,QSLDQEIPLKVKTEIEEELKSLDK [L8P],5.17

row,Variant,protein stability index
1,QSLDQEPLLKVKTEIEEELKSLDK [I7P],5.83
2,QSLDQEILLKVKTEIEEELKSEDK [L22E],4.58
3,QSLDQEIHLKVKTEIEEELKSLDK [L8H],5.63
4,QSLDQEILLKVKTEIEEELKKLDK [S21K],4.83
5,QSLDQEILLKVKTEIEEEWKSLDK [L19W],4.46
6,QSLDQEILLKVKTEIEEELASLDK [K20A],5.08
7,QSLDQEILLKVKTEIEEENKSLDK [L19N],5
8,QSLCQEILLKVKTEIEEELKSLDK [D4C],4
9,QSLDWEILLKVKTEIEEELKSLDK [Q5W],3.67
10,QSLDQEELLKVKTEIEEELKSLDK [I7E],5.63
11,QSLDQEILLKVKTEIEEEYKSLDK [L19Y],5.05
12,QSLDREILLKVKTEIEEELKSLDK [Q5R],4.14
13,QWLDQEILLKVKTEIEEELKSLDK [S2W],1.48
14,QSLDQEILLKVKTEIEVELKSLDK [E17V],2.69
15,QSLDQEILLKVLTEIEEELKSLDK [K12L],2.13
16,QSLDQEILNKVKTEIEEELKSLDK [L9N],5.48
17,QSLDQEILHKVKTEIEEELKSLDK [L9H],5.39
18,QSLDQEILLKVKTEIEEEGKSLDK [L19G],5.03
19,RSLDQEILLKVKTEIEEELKSLDK [Q1R],4.64
20,QSLDQEILLKVKTESEEELKSLDK [I15S],5.72
21,QSLDQEILLTVKTEIEEELKSLDK [K10T],4.84
22,QSLDQEILLKVKTEIGEELKSLDK [E16G],5.21
